In publication PMC9482650, “Quantitative fragmentomics allow affinity mapping of interactomes” (Nature Communications, 2022):

T1: HTRA4, P83105
T1 sequence (P83105 378-476, limits assumed, looked up): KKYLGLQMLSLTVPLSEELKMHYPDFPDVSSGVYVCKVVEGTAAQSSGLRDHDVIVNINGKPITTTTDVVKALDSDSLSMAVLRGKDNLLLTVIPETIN

T2: RAPGEF6, Q8TEU7
T2 sequence (Q8TEU7 525-625, limits assumed, looked up): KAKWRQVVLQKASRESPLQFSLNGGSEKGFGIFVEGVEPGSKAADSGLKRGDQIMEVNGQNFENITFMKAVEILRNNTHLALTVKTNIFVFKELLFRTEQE

T3: SNTA1, Q13424
T3 sequence (Q13424 82-180, limits assumed, looked up): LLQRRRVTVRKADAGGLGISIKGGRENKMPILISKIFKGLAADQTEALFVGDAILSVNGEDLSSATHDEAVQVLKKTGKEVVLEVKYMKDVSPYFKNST

T4: TX1BP3, O14907
T4 sequence (O14907 10-122, limits assumed, looked up): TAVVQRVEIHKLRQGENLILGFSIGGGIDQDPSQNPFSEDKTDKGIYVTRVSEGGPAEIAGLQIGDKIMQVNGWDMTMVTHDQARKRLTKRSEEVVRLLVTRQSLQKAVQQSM

T5: ARHGEF11, O15085
T5 sequence (O15085 42-136, limits assumed, looked up): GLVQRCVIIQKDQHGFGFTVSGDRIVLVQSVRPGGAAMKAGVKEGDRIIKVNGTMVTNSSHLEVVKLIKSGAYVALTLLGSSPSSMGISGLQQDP

T6: GRIP1_7, Q9Y3R0
T6 sequence (Q9Y3R0 999-1096, limits assumed, looked up): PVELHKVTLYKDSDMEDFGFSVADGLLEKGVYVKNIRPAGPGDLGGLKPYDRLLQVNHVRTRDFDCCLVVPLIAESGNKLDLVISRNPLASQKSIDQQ

T7: NHERF3_4, Q5T2W1
T7 sequence (Q5T2W1 373-468, limits assumed, looked up): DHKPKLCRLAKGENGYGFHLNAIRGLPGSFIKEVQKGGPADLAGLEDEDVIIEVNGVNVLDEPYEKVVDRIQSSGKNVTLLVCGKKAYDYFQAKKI

T8: LIN7B, Q9HAP6
T8 sequence (Q9HAP6 88-185, limits assumed, looked up): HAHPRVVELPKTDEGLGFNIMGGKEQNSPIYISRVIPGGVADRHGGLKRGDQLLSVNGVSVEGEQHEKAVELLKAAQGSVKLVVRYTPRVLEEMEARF

T9: HTRA3, P83110
T9 sequence (P83110 354-453, limits assumed, looked up): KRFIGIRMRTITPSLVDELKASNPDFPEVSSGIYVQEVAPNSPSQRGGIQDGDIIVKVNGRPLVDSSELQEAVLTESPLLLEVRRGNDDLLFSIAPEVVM

T10: RADIL, Q96JH8
T10 sequence (Q96JH8 971-1071, limits assumed, looked up): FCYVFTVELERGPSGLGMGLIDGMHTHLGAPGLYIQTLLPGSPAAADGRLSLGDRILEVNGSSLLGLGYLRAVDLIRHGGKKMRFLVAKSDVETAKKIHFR

T11: SNTB1, Q13884
T11 sequence (Q13884 107-205, limits assumed, looked up): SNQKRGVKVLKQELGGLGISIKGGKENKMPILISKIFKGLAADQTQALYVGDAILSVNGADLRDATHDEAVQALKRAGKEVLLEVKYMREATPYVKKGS

T12: TJP3_3, O95049
T12 sequence (O95049 375-456, limits assumed, looked up): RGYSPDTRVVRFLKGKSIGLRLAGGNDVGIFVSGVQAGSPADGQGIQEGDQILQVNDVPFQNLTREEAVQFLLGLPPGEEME

T13: SIPA1L2, Q9P2F8
T13 sequence (Q9P2F8 945-1036, limits assumed, looked up): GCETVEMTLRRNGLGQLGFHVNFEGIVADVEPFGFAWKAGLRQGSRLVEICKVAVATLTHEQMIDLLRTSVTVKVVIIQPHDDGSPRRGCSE


Legend:
Assay in all cases: holdup assay
Design in all cases: key: below the threshold = too weak to quantify, mostly under pKd 3.1 to 4
Conditions in all cases: plain residues with an end cap or a label only (N-terminal biotin on a linker: ttds)
LDB3, O75112 = target: LDB3, O75112
LDB3, O75112, sequence (O75112 1-94): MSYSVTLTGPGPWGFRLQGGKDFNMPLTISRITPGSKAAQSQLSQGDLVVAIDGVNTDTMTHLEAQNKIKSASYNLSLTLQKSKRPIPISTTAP

HTRA4, P83105 = target: T1, HTRA4, P83105
RAPGEF6, Q8TEU7 = target: T2, RAPGEF6, Q8TEU7
MAGI1_2, Q96QZ7 = target: MAGI1_2, Q96QZ7
MAGI1_2, Q96QZ7, sequence (Q96QZ7 456-580): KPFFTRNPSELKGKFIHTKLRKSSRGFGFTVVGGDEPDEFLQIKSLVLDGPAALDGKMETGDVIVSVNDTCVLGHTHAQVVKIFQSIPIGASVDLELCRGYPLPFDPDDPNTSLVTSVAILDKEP

MAGI2_4, Q86UL8 = target: MAGI2_4, Q86UL8
MAGI2_4, Q86UL8, sequence (Q86UL8 772-865): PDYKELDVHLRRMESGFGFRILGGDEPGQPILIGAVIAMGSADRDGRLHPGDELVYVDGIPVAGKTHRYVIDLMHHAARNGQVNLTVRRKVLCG

GRID2IP_2, A4D2P6 = target: GRID2IP_2, A4D2P6
GRID2IP_2, A4D2P6, sequence (A4D2P6 272-370): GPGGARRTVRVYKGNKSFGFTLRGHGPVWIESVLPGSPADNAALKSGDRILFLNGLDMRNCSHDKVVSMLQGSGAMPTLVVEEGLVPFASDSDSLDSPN

SNTA1, Q13424 = target: T3, SNTA1, Q13424
AHNAK1, Q09666 = target: AHNAK1, Q09666
AHNAK1, Q09666, sequence (Q09666 4-100): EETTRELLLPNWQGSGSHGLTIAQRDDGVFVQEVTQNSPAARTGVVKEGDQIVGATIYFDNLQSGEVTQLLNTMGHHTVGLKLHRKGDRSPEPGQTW

TX1BP3, O14907 = target: T4, TX1BP3, O14907
DLG1_1, Q12959 = target: DLG1_1, Q12959
ARHGEF11, O15085 = target: T5, ARHGEF11, O15085
DLG4_3, P78352 = target: DLG4_3, P78352
DLG4_3, P78352, sequence (P78352 306-403): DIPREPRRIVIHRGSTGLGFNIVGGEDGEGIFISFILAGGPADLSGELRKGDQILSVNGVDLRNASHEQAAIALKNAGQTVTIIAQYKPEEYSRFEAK

GRIP1_7, Q9Y3R0 = target: T6, GRIP1_7, Q9Y3R0
DLG5_1, Q8TDM6 = target: DLG5_1, Q8TDM6
DLG5_1, Q8TDM6, sequence (Q8TDM6 617-713): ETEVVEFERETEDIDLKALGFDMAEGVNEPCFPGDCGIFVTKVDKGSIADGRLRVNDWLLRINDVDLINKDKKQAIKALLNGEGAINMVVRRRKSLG

NHERF3_4, Q5T2W1 = target: T7, NHERF3_4, Q5T2W1
DLG2_2, Q15700 = target: DLG2_2, Q15700
DLG2_2, Q15700, sequence (Q15700 189-283): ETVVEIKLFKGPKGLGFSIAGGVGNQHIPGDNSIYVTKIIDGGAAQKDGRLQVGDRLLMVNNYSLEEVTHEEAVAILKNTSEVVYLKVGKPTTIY

LIN7B, Q9HAP6 = target: T8, LIN7B, Q9HAP6
HTRA3, P83110 = target: T9, HTRA3, P83110
RADIL, Q96JH8 = target: T10, RADIL, Q96JH8
TJP1_3, Q07157 = target: TJP1_3, Q07157
TJP1_3, Q07157, sequence (Q07157 416-512): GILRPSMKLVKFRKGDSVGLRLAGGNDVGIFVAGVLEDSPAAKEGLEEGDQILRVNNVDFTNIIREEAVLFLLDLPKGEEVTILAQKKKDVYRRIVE

SNTB1, Q13884 = target: T11, SNTB1, Q13884
Inadl_6, Q8NI35 = target: Inadl_6, Q8NI35
Inadl_6, Q8NI35, sequence (Q8NI35 1058-1167): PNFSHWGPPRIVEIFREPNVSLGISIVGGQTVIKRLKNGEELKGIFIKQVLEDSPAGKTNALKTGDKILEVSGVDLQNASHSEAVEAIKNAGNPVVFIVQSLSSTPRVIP

NHERF4_2, Q86UT5 = target: NHERF4_2, Q86UT5
NHERF4_2, Q86UT5, sequence (Q86UT5 220-308): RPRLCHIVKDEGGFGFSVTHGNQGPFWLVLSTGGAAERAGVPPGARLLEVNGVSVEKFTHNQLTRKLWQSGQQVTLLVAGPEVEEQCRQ

TJP3_3, O95049 = target: T12, TJP3_3, O95049
SIPA1L2, Q9P2F8 = target: T13, SIPA1L2, Q9P2F8

| Binder | pKd (LDB3, O75112) | pKd (HTRA4, P83105) | pKd (RAPGEF6, Q8TEU7) | pKd (MAGI1_2, Q96QZ7) | pKd (MAGI2_4, Q86UL8) | pKd (GRID2IP_2, A4D2P6) | pKd (SNTA1, Q13424) | pKd (AHNAK1, Q09666) | pKd (TX1BP3, O14907) | pKd (DLG1_1, Q12959) | pKd (ARHGEF11, O15085) | pKd (DLG4_3, P78352) | pKd (GRIP1_7, Q9Y3R0) | pKd (DLG5_1, Q8TDM6) | pKd (NHERF3_4, Q5T2W1) | pKd (DLG2_2, Q15700) | pKd (LIN7B, Q9HAP6) | pKd (HTRA3, P83110) | pKd (RADIL, Q96JH8) | pKd (TJP1_3, Q07157) | other results |
| --- | --- | --- | --- | --- | --- | --- | --- | --- | --- | --- | --- | --- | --- | --- | --- | --- | --- | --- | --- | --- | --- |
| SVWLRKETRV [CYSLTR2, Q9NS75] | below the threshold | 3.38 | 3.44 | 5.63 | 4.06 | 3.45 | 5.41 | below the threshold | 4.75 | 5.14 | 4.46 | 6.55 | 3.77 | below the threshold | 3.48 | 5.24 | 4.35 | below the threshold | 3.7 | below the threshold | pKd (SNTB1, Q13884): 5.5; pKd (Inadl_6, Q8NI35): below the threshold; pKd (NHERF4_2, Q86UT5): below the threshold; pKd (TJP3_3, O95049): 3.37; pKd (SIPA1L2, Q9P2F8): below the threshold |
| RSLEEEESQL [GRASP, Q7Z6J2] | 3.68 | below the threshold | 3.56 | below the threshold | 3.7 | 4.33 | below the threshold | 3.93 | 3.84 | below the threshold | 3.78 | 3.75 | below the threshold | below the threshold | below the threshold | below the threshold | 3.7 | below the threshold | 3.53 | below the threshold | pKd (SNTB1, Q13884): 3.89; pKd (Inadl_6, Q8NI35): 4.05; pKd (NHERF4_2, Q86UT5): below the threshold; pKd (TJP3_3, O95049): 3.65; pKd (SIPA1L2, Q9P2F8): below the threshold |
| SRPQRTQTQV [HPV67-E6, A4U7F2] | below the threshold | below the threshold | below the threshold | 5.22 | 4.14 | below the threshold | 3.94 | below the threshold | 4.03 | 4.52 | 4.05 | 4.23 | below the threshold | below the threshold | below the threshold | 4.81 | below the threshold | below the threshold | below the threshold | below the threshold | pKd (SNTB1, Q13884): below the threshold; pKd (Inadl_6, Q8NI35): below the threshold; pKd (NHERF4_2, Q86UT5): below the threshold; pKd (TJP3_3, O95049): below the threshold; pKd (SIPA1L2, Q9P2F8): below the threshold |
